Data set [1] addresses T1, CD1d molecule expressed on JAWS2 cells, P11609.
T1 chain: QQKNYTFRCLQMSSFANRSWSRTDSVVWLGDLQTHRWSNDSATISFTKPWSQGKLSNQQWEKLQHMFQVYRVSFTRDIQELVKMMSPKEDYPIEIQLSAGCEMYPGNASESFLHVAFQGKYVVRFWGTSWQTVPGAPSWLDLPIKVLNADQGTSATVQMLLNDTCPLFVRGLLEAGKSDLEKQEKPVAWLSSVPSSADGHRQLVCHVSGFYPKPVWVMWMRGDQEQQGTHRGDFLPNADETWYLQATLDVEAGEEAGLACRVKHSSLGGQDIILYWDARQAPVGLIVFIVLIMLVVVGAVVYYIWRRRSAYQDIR

The target in data set [2] is T cell receptors of CD4+ NKT cells from the spleen of BALB/c mice given intranasal Der p 1. As to the kind of experiment: tetramer staining of spleen CD4+ T cells, facs.
For data set [3], the target named is T cell receptors of NKT cells among spleen CD4+ T cells of hemophilia A mice immunized with Factor VIII. As to the kind of experiment: fluorochrome-labeled tetramer, 30 minutes at 4 C, Facs.

Where a chain is given by its changes, count along the chain named. No end group written: not given here.

B1: Der p 1 in natural sequence (SEQ ID17) (protein)
chain: TNACSINGNAPAEIDLRQMRTVTPIRMQGGCGSCWAFSGVAATESAYLAYRNQSLDLAEQELVDCASQHGCHGDTIPRGIEYIQHNGVVQESYYRYVAREQSCRRPNAQRFGISNYCQIYPPNVNKIREALAQTHSAIAVIIGIKDLDAFRHYDGRTIIQRDNGYQPNYHAVNIVGYSNAQGVDYWIVRNSWDTNWGDNGYGYFAANIDLMMIEEYPYVVIL
For the molecule B1, the “production of cytokines such as IFN-gamma and IL-4 as markers of NKT activation” value in data set [1] was “a significant production of cytokines was present”.

B2: mutated Der p 1 (SEQ ID16) (protein)
chain: B1 chain with F37S, H135S, Y216S
Consider B2, for which the “production of IFN-gamma and IL-4 taken as an indication of NKT activation” value in data set [1] was “NKT cells obtained from mice immunized with natural sequence Der p 1 failed to be activated when incubated in the presence of JAWS2 cells loaded with mutated Der p 1”.

B3: CD1d tetramers loaded with peptide of SEQ ID13 (peptide-MHC, part only; not given: CD1d and beta-2 microglobulin, part only)
peptide: FSGVAAT
The molecule B3 gave a percentage of cells stained with the tetramers in data set [2] of 10%.

B4: CD1d tetramers loaded with peptide of SEQ ID1 (44pept) (peptide-MHC, part only; not given: peptide flanks, CD1d, beta-2 microglobulin, part only)
peptide, part: FCHISSH
modifications: also: loaded on fluorochrome-labelled CD1d tetramers
In data set [3], B4 returned a % of NKT cells recognizing the tetramer below 45%.

B5: CD1d tetramers loaded with peptide of SEQ ID14 (peptide-MHC, part only; not given: CD1d and beta-2 microglobulin, part only)
peptide: HSAIAAVI
The molecule B5 returned a percentage of cells stained with the tetramers in data set [2] of 10%.

B6: CD1d tetramers loaded with peptide of SEQ ID15 (peptide-MHC, part only; not given: CD1d and beta-2 microglobulin, part only)
peptide: YPYVVIL
On to B6, for which the percentage of cells stained with the tetramers in data set [2] stood at 10%.
